The text below walks through data of US20150368668A1 (RUTGERS THE STATE UNIVERSITY OF NEW JERSEY, published 2015).

The target in experiment [1] is human CD81, cellular receptor on the cells infected with HCVcc (human) (UniProt P60033). In words: cell-based or functional assay.
Experiment [2] deals with T1, Human CD81-LEL (residues 112-202), protein-A tag cleaved by PreScission Protease (human, UniProt P60033 112-202).
T1 construct: range 112-202
T1 sequence: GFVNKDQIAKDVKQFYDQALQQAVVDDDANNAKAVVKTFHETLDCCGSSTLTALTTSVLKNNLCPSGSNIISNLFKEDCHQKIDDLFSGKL
In words: ELISA, CD81-LEL coated, detection with 2A12 and anti-mouse-HRP.

In experiment [3] the target is T1, Human CD81-LEL (residues 112-202), …. In words: SAXS envelope of the complex.

Chain of human CD81, cellular receptor on the cells infected with HCVcc (human) (P60033 whole entry, the tested form may be a part): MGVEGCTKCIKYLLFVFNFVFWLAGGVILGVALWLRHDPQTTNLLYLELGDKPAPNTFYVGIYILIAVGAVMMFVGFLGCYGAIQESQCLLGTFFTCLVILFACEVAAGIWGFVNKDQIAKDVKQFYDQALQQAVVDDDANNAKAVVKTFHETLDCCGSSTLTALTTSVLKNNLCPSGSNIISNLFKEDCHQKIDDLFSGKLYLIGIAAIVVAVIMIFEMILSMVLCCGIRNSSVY

Take “purified eE2 (J6 genotype 2a E2 ectodomain aa 384-664, released from the Fc tag by thrombin) (from UniProt P26660 385-664)”: in experiment [1], the 50% blocking efficiency, HCVcc focus forming units was in the range of 25 to 150 µg/mL.
On the same count and under the same terms, with “purified eE2-C656S (J6 E2 ectodomain aa 384-664 with C656S, released from the Fc tag by thrombin) (from UniProt P26660 385-664)” the figure was 25 to 150 µg/mL.

B1: full-length E2 ectodomain eE2 (residues 384-656, genotype J6), produced with a C-terminal protein-A tag and released by PreScission Protease (other)
chain: RTHTVGGSAAQTTGRLTSLFDMGPRQKIQLVNTNGSWHINRTALNCNDSLHTGFIASLFYTHSFNSSGCPERMSACRSIEAFRVGWGALQYEDNVTNPEDMRPYCWHYPPRQCGVVSAKTVCGPVYCFTPSPVVVGTTDRLGAPTYTWGENETDVFLLNSTRPPLGSWFGCTWMNSSGYTKTCGAPPCRTRADFNASTDLLCPTDCFRKHPDTTYLKCGSGPWLTPRCLIDYPYRLWHYPCTVNYTIFKIRMYVGGVEHRLTAACNFTRGDRC
modifications: N-linked glycans from GnTI- HEK293T cells; whether deglycosylated in the ELISAs is not stated
notes: Monomeric; also called eE2 (384-656)
For the molecule B1, in experiment [2], the binding result is “binds”.

B2: eE2(ΔHVR1) (residues 413-656, genotype J6) (other)
chain: LVNTNGSWHINRTALNCNDSLHTGFIASLFYTHSFNSSGCPERMSACRSIEAFRVGWGALQYEDNVTNPEDMRPYCWHYPPRQCGVVSAKTVCGPVYCFTPSPVVVGTTDRLGAPTYTWGENETDVFLLNSTRPPLGSWFGCTWMNSSGYTKTCGAPPCRTRADFNASTDLLCPTDCFRKHPDTTYLKCGSGPWLTPRCLIDYPYRLWHYPCTVNYTIFKIRMYVGGVEHRLTAACNFTRGDRC
modifications: glycosylated (SAXS sample)
notes: also called eE2(DHVR1); eE2 (DHVR1)
For the molecule B2, the binding result in experiment [3] is given as “binds”.
